In paper PMC4811514, “MULTIMERIN2 binds VEGF-A primarily via the carbohydrate chains exerting an angiostatic function and impairing tumor growth” (Oncotarget, 2015):

Key:
[1] = target: T1, MULTIMERIN2 (UniProt Q9H8L6 23-949, glycosylated (carbohydrate chains)); assay: SPR; Biacore X100, CM5 chip; MMRN2 immobilised by amine coupling (3150 RU); cytokines in HBS-EP buffer (150 mM NaCl), 30 μL/min, 60 seconds of contact
T1 construct: MULTIMERIN2 (MMRN2), the whole recombinant His-tagged molecule; also called MMRN2; the whole molecule; source: 293-EBNA cells, purified from serum-free medium (Ni-NTA resin)
T1 sequence (looked up): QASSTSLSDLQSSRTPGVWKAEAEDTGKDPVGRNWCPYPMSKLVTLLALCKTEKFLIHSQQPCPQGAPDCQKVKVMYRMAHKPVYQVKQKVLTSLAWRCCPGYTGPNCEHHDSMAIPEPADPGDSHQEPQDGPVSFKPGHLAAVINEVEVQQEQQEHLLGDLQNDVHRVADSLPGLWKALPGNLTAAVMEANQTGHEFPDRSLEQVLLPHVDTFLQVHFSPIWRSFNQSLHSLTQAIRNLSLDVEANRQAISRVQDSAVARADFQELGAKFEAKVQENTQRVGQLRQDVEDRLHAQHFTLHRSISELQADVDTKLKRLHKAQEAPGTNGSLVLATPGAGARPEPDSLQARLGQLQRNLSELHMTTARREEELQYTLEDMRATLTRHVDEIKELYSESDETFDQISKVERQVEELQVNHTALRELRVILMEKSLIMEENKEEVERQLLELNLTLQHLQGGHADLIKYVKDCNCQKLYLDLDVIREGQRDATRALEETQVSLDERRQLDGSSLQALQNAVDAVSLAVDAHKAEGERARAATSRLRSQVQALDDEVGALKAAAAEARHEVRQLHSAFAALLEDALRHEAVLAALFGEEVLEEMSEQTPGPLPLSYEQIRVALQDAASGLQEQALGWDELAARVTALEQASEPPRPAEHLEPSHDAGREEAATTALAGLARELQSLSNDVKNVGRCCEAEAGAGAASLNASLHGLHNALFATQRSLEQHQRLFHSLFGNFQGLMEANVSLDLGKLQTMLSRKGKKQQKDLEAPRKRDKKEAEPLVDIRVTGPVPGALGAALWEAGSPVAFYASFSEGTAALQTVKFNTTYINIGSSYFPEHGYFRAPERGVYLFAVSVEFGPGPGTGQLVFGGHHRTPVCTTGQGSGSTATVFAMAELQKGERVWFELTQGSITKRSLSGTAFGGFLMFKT

[2] = target: T1, MULTIMERIN2; assay: SPR; Biacore X100, CM5 chip; MMRN2 immobilised by amine coupling; NaCl concentration of 300 mM instead of 150 mM
[3] = target: MMRN2 Δ2 deletion mutant (UniProt Q9H8L6); assay: SPR; Biacore X100, CM5 chip; Δ2 fragment immobilised by amine coupling (1770 RU); VEGF-A165 in HBS-EP buffer, 30 μL/min, 60 seconds of contact

For “PlGF-1 (from UniProt P49763-2 19-149) (ligand)”, the Kd [1] was 560 nM.

VEGF-A121 (ligand) gave a Kd [1] of 200 nM.

For VEGF-A145 (ligand), the Kd [2] was 27 nM.

With VEGF-A165 (ligand) the Kd [3] was 430 nM.

VEGF-A189 (ligand) was tested, and the Kd [2] was 3 nM.

“VEGF-C (from UniProt P49767 112-227) (ligand)” showed a Kd [1] of 750 nM.

B1: VEGF-D (ligand, UniProt O43915 89-205, looked up)
chain: FAATFYDIETLKVIDEEWQRTQCSPRETCVEVASELGKSTNTFFKPPCVNVFRCGGCCNEESLICMNTSTSYISKQLFEISVPLTSVPELVPVKVANHTGCKCLPTAPRHPYSIIRR
notes: vascular endothelial growth factor D; Commercial VEGF-D is usually the processed VEGF homology domain, not the whole precursor; source: bought: Peprotech
B1 showed a Kd ([1]; both partners purified) of 640 nM.
